Assay results from article PMC2804306 (Biopolymers, 2008).

Molecular target: Human MMP-12(ΔC) (human, UniProt P39900 106-263)
Assay: enzyme inhibition kinetics

Human MMP-12(ΔC), sequence (P39900 106-263, stated change not applied): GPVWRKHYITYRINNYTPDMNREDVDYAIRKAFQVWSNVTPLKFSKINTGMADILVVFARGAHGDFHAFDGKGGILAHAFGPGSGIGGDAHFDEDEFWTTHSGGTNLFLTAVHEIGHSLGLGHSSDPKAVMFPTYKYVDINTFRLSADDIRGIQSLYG

Ki: ~1.5 nM
stoichiometry N: 1.05 molar equivalents
B1: N-TIMP-1, N-terminal inhibitory domain of tissue inhibitor of metalloproteinases 1 (active form, free alpha-amino group of Cys1) (domain or fragment)
chain: not shown
